Measurements reported in patent publication US20110144312A1 (Kyowa Kirin, published 2011).
Residue numbers refer to the chain shown, from its start.

B1: 136C5 (antibody, V domains shown)
VH: EVQLVESGGGLVQPGGSLRLSCAASGFTFSSYSMNWVRQAPGKGLEWVSYISTGSSTIYYADSVKGRFTISRDNAKNSLYLQMNSLRDEDTAVYYCARENYYGSGSYEDYFDYWGQGTLVTVSS
VL: EIVLTQSPATLSLSPGERATLSCRASQSVSSYLAWYQQKPGQAPRLLIYDASNRATGIPARFSGSGSGTDFTLTISSLEPEDFAVYYCQQRSNWPIFTFGPGTKVDIK
notes: Hybridoma antibody, human IgG1, kappa light chain; also called human anti-human IL-10Rα monoclonal antibody 136C5; hybridoma deposit PTA-9131
B2: 136C8 (antibody, V domains shown)
VH: B1 VH with G54R
VL: B1 VL
notes: Hybridoma antibody, human IgG2, kappa light chain; also called human anti-human IL-10Rα monoclonal antibody 136C8; hybridoma deposit PTA-9132

Key:
[1] = biological target: T1, SNP variant L61V of human IL-10Rα extracellular domain fused to the Fc portion of human IgG1 (human); assay: ELISA with SNP variant Fc fusion
T1 construct: The entry already holds the change and includes the signal peptide; also called L61I; L611

[2] = biological target: T2, SNP variant R212E of human IL-10Rα extracellular domain fused to the Fc portion of human IgG1 (human); assay: ELISA with SNP variant Fc fusion
T2 construct: The entry already holds the change and includes the signal peptide

[3] = biological target: T3, SNP variant S159G of human IL-10Rα extracellular domain fused to the Fc portion of human IgG1 (human); assay: ELISA with SNP variant Fc fusion
T3 construct: The entry already holds the change and includes the signal peptide

[4] = biological target: T4, SNP variant V113I of human IL-10Rα extracellular domain fused to the Fc portion of human IgG1 (human); assay: ELISA with SNP variant Fc fusion
T4 construct: The entry already holds the change and includes the signal peptide; also called V1131

[5] = biological target: T5, SNP variant V233M of human IL-10Rα extracellular domain fused to the Fc portion of human IgG1 (human); assay: ELISA with SNP variant Fc fusion
T5 construct: The entry already holds the change and includes the signal peptide

[6] = biological target: T6, Biotin-SGSTYSIFSHFREYEIAIRKV-NH2 (human, N-terminal biotin, C-terminal amide (-NH2)); assay: dot blot on PVDF or nitrocellulose membrane
T6 peptide: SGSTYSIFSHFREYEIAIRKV
Protocol: (§1) Methods to detect antibody binding to peptides derived from the human IL-10Rα sequence: Multiple methods were employed to detect binding of anti-human IL-10Rα antibodies to peptides derived from the extracellular domain of human IL-10Rα that have been reported by Reineke, et al. (Reineke, et al., Protein Sci 7:951 (1998)) to be included in the IL-10 binding site of the receptor. The following amide synthesized peptides were tested: Ac-[…]-NH2, Ac-[…]-NH2, Ac-[…]-NH2, Ac-[…]-NH2, Ac-[…]-NH2 (SEQ ID NO. 81-85). In addition, the following biotinylated peptides were tested: Biotin-[…]-NH2, Biotin-[…]-NH2 (SEQ ID NO. 86-87). The amide peptides were synthesized by A&A Labs, LLC (San Diego, Calif.) and the biotinylated peptides were synthesized by GenScript (Piscataway, N.J.) both at >95% purity and reconstituted at 20 mg/ml in DMSO. In one assay design peptides were spotted at 5 μg/spot in PBS onto PVDF membranes or nitrocellulose membranes that had been prepared according to the manufacturer's instructions. The membranes were incubated with anti-IL-10Rα antibodies using standard Western blotting methods (e.g. Towbin, et al., Proc Natl Acad Sci 76:4350 (1979)). Native human IL-10Ra:hFc and heat denatured human IL-10Ra:hFc were also spotted at 1 μg/spot on the membranes as controls. Negative controls included an irrelevant peptide and isotype controls. […] None of the antibodies bound to the spotted denatured protein or to any of the peptides derived from the human IL-10Ra extracellular domain or the irrelevant peptide.

[7] = biological target: T7, Biotin-SGSTLDLYHSNGYRARVRAVDG-NH2 (human, N-terminal biotin, C-terminal amide (-NH2)); assay: dot blot on PVDF or nitrocellulose membrane
T7 peptide: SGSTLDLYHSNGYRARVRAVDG
Protocol: as §1

[8] = biological target: T2, SNP variant R212E of human IL-10Rα …; assay: ELISA, coated SNP variant Fc fusion R212E [E]

T2 sequence (chain, as listed by the source R212E R212E limits assumed): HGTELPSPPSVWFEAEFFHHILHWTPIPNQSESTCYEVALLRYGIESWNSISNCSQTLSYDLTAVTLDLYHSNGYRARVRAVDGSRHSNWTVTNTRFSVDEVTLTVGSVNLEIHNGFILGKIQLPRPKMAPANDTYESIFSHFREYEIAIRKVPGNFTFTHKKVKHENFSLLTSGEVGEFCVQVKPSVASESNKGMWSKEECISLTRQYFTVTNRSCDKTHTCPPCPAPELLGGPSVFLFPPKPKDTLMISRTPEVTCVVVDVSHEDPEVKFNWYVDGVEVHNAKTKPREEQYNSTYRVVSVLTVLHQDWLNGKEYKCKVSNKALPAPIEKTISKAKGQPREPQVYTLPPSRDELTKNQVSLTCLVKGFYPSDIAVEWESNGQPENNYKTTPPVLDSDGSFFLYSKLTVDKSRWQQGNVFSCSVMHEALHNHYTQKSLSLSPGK
T3 sequence (chain, as listed by the source S159G S159G limits assumed): as the sequence (chain, as listed by the source R212E R212E limits assumed) above, with S138G, E191R counted along it
T1 sequence (chain, as listed by the source L61V L61V limits assumed): as the sequence (chain, as listed by the source R212E R212E limits assumed) above, with L40V, E191R counted along it
T5 sequence (chain, as listed by the source V233M V233M limits assumed): as the sequence (chain, as listed by the source R212E R212E limits assumed) above, with E191R, V212M counted along it
T4 sequence (chain, as listed by the source V113I V113I limits assumed): as the sequence (chain, as listed by the source R212E R212E limits assumed) above, with V92I, E191R counted along it

Binder | binding result [1] | binding result [2] | binding result [3] | binding result [4] | binding result [5] | binding result [6] | binding result [7] | binding result [8]
B1 | binds | binds | binds | binds | binds | – | – | –
B2 | – | – | – | – | – | no binding (tested: 5 µg/spot) | no binding (tested: 5 µg/spot) | binds
